The source of these data is the nanobody polyreactivity screen of Harvey et al. (2022).

A short description of this data set: yeast display, Sf9 membrane polyspecificity reagent, FACS + sequencing; frameworks hold sequencing errors. The method, boiled down:
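A nanobody's polyreactivity label depends on the gate it was sorted from. Yeast display cells were stained with 10% biotinylated, detergent-solubilized Sf9 membrane reagent for 1 hour at 4 °C, enriched on streptavidin microbeads and sorted by FACS. The low and high (top ~1%) gates were set on anti-HA fluorescence for expression and streptavidin fluorescence for reagent binding.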
With “QVQLVESGGGLVQAGGSLRLSCSASGYISHYAMGWYRQAPGKERELVAAISRRGGSTYYADSVKGRFTISRDNAKNTVYLQMNSLKPEDTAVYYCNKATSYFTVRGYDYCGQGTQVTVSS”, the “polyreactivity (PSR sort gate)” value is on record as “high polyreactivity”.

With “QVQLVESGGGLVQAGGSLRLSCAAYGRTFDTYAMGWYLQAPGKERELVAAISFSGASTYYADSVKGRFTISRDNAKNTVYLQLNSLKPEDTAVYYCNARYGYRVPLTPIGARFNYWGQGTQETVSS”, the “polyreactivity (PSR sort gate)” value was “high polyreactivity”.

Take “QVQLVESGGGLVQARGSLRLSCAATGSTLSFYAMVWYRQAPGKERELVAAISYSTGTTYYADSVKGRFTISRDNAKNTVYLQMNSLKPEDTAVYYCNAVGTGGYSSEYGYWGQGTQVTVSS”: the “polyreactivity (PSR sort gate)” value was “high polyreactivity”.

In the case of “QVQLEDSGGGLVQAGGSLRLSCAASGIIFPDYAMGWYRQAPGKQRELVADISFSAGSTYYADSVKGRFTISRDNAKNTVYLQMNSLKPEDTAVYYCNARPFLTVLYLFYGNNYDYWGQGTQVTVSS”, the “polyreactivity (PSR sort gate)” value is “low polyreactivity”.

For “QVQLVESGGGLVQAGGSLRLSCAASGRIFRRNAMGWYRQAPGKERELVAGIDSSGGSTYYADSVKGRFTISRDNAKNSVYLQMNSLKPEDTAVYYCNAVGYSQGYDYWGQGTQVTVSS”, the “polyreactivity (PSR sort gate)” value was “high polyreactivity”.

Take “QVQLVESGGGLVQAGGSLRLSCAASGLIFGRYAMGGYRQAPGKEREFVAAITWRVGTTYYADSVKGRFTISRDNAKITVYLQMNSLKPEDTAVYYCAARSRTGRYDYWGQGTQVTVSS”: the “polyreactivity (PSR sort gate)” value was “high polyreactivity”.

As for “QVQLVESGGGLVKAGGSLRLSCAASGRTFGSYAMGWYRLAPGTERELVAAITGSGAGTYYADSVKGRFTISRDNAKNTVYLQMNSLKPEDTSVYYCAARRPWQFYYWVQGTQVTVSS”, the “polyreactivity (PSR sort gate)” value is on record as “high polyreactivity”.

Take “QVQLVESGGGLVQAGGSLRLSCAASGSIQGYVMGWYRQAPGKERELVAAITNGGSTYYADSVKGRFTISRDNAKNTVYLQMISLKPEDTAVYYCAKRKFRWPYQGSYSYIPFGYWGQGTQVTVSS”: the “polyreactivity (PSR sort gate)” value is listed as “high polyreactivity”.

“QVQLVESGGGLVQAGGSLRLSCAASGRIFVINAMGWYRQAPGKERELVAAISSSGGSTSYADSVKGRFTISRDNAKNTVYFQMNSLKPEDTAVYYCAAKPRVRRVDGYYWGQGTQVTVSS”: the “polyreactivity (PSR sort gate)” value is given as “high polyreactivity”.

Regarding “QVQLVESGGGLVQAGGSLRESCAASGSISAEYVMGWYRKAPGKERELVAAISVSAGTTYYADSVKGRFTISRDNAKTTVYLHMNSLKPEDTAVYYCAATDSYYWLYYYGYSPCNDYWGQGTQVTVSS”, the “polyreactivity (PSR sort gate)” value was “low polyreactivity”.

On to “QVQLVESGGGLVQAGGSLRLSCAASGFTFDSYAMGWYRQAPGKERELVAAITSGDSTHYADSVKGRFTISRDNAKNTVYLQMNSLKPEDTAVYYCAASGFPYPYDYWGQGTQVTVSS”, for which the “polyreactivity (PSR sort gate)” value was “low polyreactivity”.

Take “QVQLVESGGGLVQAGGSLRLSCAASGRTLGFYAMGWYRQAPGKEREFVAAISSSVGRTYYADSVKGRFTISRDNAKNTVYLQMNSLKPEDTAVYYCAADRTDTSNYWGQGTQVTVSS”: the “polyreactivity (PSR sort gate)” value is given as “high polyreactivity”.

For “QVQLVESGGGLVQAAGSLRLSCAASGGTFWFYDMGWYRQAPGKERELVAAINSDGSTYYADSVKGRFTISRDNAKNTVYLQMNSLKPEDTAVYYCAVDQTYVGEGLSEVDVGYWGQGTQVTVSS”, the “polyreactivity (PSR sort gate)” value was “low polyreactivity”.

In the case of “QVQLVESGGGLVQAGGSLRLSCAASGSIFVANAMGWYRQAPVKERELVAAISRRGGSTYYADSVKGRFTISRDNAKNTVYLQMNSLKPEDTAVYYCAAEDVYEYDYWGQGTQVTVSS”, the “polyreactivity (PSR sort gate)” value is “high polyreactivity”.

With “QVQLVESGRGLVQAGGSLRLSCAASGITFWYYAMGWYRQAPGKERELVASINRSGGSTYADSVKGRFTISRDNAKITVYLQMNSLKPEDTAVYYCAARLYSSVVRYRYGYWGQGTQVTVSS”, the “polyreactivity (PSR sort gate)” value is on record as “high polyreactivity”.

With “QVQLVESGGGLVQAGGSLRLSCAASGSTFYKNAMGWYRQAPGKEREFVAAIRSGDSTNYADSVKGRFTISRDNAKNTVYIQMNSLKPEDSAVYYCARDRPGDYAGYDYWGQGSQVTVSS”, the “polyreactivity (PSR sort gate)” value is on record as “low polyreactivity”.

As to “QVQLVESGGGLVQAGGSLRLSCAASGRTFWWYAMGWYRQAPGKERELVADINGSGGSTYYADSVKGRFTISRDNAKHTVYLQMNSLKPEDTAVYYCAADYYRYIHSVVYSIYDYWGQGTQVTVSS”, the “polyreactivity (PSR sort gate)” value is given as “low polyreactivity”.

In the case of “QVQLVESGGGLVQAGGSLRLSCAASGSTSDTNVMGWYRQPPAKERELVAAISNDDDRTYYADSVKGRFTSSRDNAKNTVYLQMNSVKPEDTAVYYCATADDYPGDDYLEGGYWGQGTQVTVSS”, the “polyreactivity (PSR sort gate)” value was “low polyreactivity”.

On to “QVQLVESGGGLVQAGGSLRLSCAASGFTFFSYAMGWYRQAPGKERELVAAISWSGGTTYYADSVKGRFTISRDNAKNTDYLQMNSLKPEDTAVYYCAAGPFSYSHYGRKFYYWGQGTQVTVSS”, for which the “polyreactivity (PSR sort gate)” value is “high polyreactivity”.

Consider “QVQLVESGGGLVQAGGSLRLSCAAYGSIFPYYAMGWYRQAPGKERELVAGITSGTRTNYADSVKGRFTISRDNAKNTVYLQMNSLKPEDTAVYYCAAYYRAYRRDYYWGQGTQVTVSS”, for which the “polyreactivity (PSR sort gate)” value is “high polyreactivity”.

On to “QVQLVESGGGLVQAGGSLRLSCAASGIIFYHNALGWYRQAPGKERELVASITEIGGSTYYADSVKGRFTISRDNEKNTVYLQMNSLKPEDTAVYYCARDWRNKWFGYWGLGTQVTVSS”, for which the “polyreactivity (PSR sort gate)” value is “low polyreactivity”.

For the sequence “QVHLVESGGGLVQAGGSLRLTCAASGSIFTYNAMGWYRQAPGKEREFVAAISRCGGNTKYADSVKGRFTISRDNAKNTVYFQMNSLKPEDTAVYYCAVRTIAYSGFRYNYWGQGTQVTVSS”, the “polyreactivity (PSR sort gate)” value is reported as “high polyreactivity”.

“QVQLVESGGGLVQAGGSLRLSCAASGSIFQQYDRGWYRQAPGKDREFVAAISSSGGSTYYADSVKGRFTISRDNAKNTDYLQMKSLKAEDSAVYYCAVDTIGYTYVDYLHGSGEFGYWGQGTQVTVSS”: the “polyreactivity (PSR sort gate)” value is given as “low polyreactivity”.

Turning to “QVQLVESGGGLVQAGGSLRLSCAASGRIFGPYAMGWYRQAPGKDRELVASISYSGGSTYYADSVKGRFTISRDKAKNTVYLQMNSLKPEDTAVYYCDKAGYWRGYNYWGQGTQVTVSS”, the “polyreactivity (PSR sort gate)” value is “low polyreactivity”.

For the sequence “QVQLVESGGGLVQAGGSLRLSCAASGSIFYPNVMGWDRQAPGKERELVAAIRTSGGSTYYADSVKGRFTISRDNAKNTVYLQMNSLKPEDTAVYYCAADYIYVKYEYWGQGTQVTVSS”, the “polyreactivity (PSR sort gate)” value was “high polyreactivity”.

As to “QVQLVESGGGLVQAGGSLRISCAASGIIFYLYTMGWYRQAPGKERELVAAITRGGSTYYADSVKGRFTISRDNAKNTVYLQMNSLKPEDTAVYYCAAKHGPGYRRWYDYWGQGTQVTVSS”, the “polyreactivity (PSR sort gate)” value is given as “high polyreactivity”.

Take “QVQLVESGGGLVQAGGSLRLSCAASGRIFFTNAMGWYRQAPGKERELGAAIRFSGGRTYYADSVKGRFTISGDNAKNTVYLQMNSLKPEDTAVYYCAADPPRTRYRNARFDYWGQGTQVTVSS”: the “polyreactivity (PSR sort gate)” value is listed as “high polyreactivity”.

Regarding “QVQLVESGGGLVQAGGSLRLSCAASGFILGLNAMGWYRQAPGKEREFVADISWSGDSTYYADSVKGRFTISRDNAKNTVYLQMNSLKPEDTAVYYCAADPYYNWCYYYWGQGTQVTVSS”, the “polyreactivity (PSR sort gate)” value is “low polyreactivity”.

Take “QVQLVESGGGLVQAGGSHRLSCAASGSILEIYAMGWYRQAPGKEREFVASISWDVSSTYYADSVKGRFTISRDNAKNTVYLQMYSLKPEDPAVYYCATSLVWGLYDWYYDLSAAFDYWGQGTQVTVSS”: the “polyreactivity (PSR sort gate)” value is reported as “low polyreactivity”.

Consider “QVQLVESGGGLVQAGGTLRLSCAASVFTFYYNTMGWYRQAPGKERELVAGIDISGSSTYADSVKGRFTISRDNAKNTVYLQMNSLKPEDTAVYYCAAVYFWGMDYWGQGTQVTVSS”, for which the “polyreactivity (PSR sort gate)” value is listed as “low polyreactivity”.

On to “QVQHVESGGGLVQAGGSLRLSCAASGFIFDCNTMGWYRQAPGKERELVATIDFSGTSTYYADSVKGRFTISRDNAKNTVYFQMNSLKPEDTAVYYCNAVRSGWGYFFCLNYWGQGTQVTVSS”, for which the “polyreactivity (PSR sort gate)” value is listed as “low polyreactivity”.

With “QVQLVESGRGLVQAGGSLRLSCAASGRIFLANAMGWSRQAPGKERELVAAISLSGGRTYYADSVKGRFTISRDIAKNTVYLQMNSLKPEDTAFYYCAAEFYPIGYYGGYDYWGPGTQVTVSS”, the “polyreactivity (PSR sort gate)” value is given as “low polyreactivity”.

For the sequence “QVQLVESGGGLVQAGGSLRLSCAASGSIFAANAMGWYRQAPGKERELVAAITSGGSTDYADSVKGRFTISRDNAKNTVYLEMNSLKPEDTAVYYCAKGYVPYAIFDYWGQGTQVTVSS”, the “polyreactivity (PSR sort gate)” value is “low polyreactivity”.

On to “QVQLVESGGGLVQAGGSLRLSSAASGRIFQKYAMGWYRPAPGKERELVAAISSGDSTYADSVKGRFTISRDNAKNTVYLQMNSLKPEDTAVYYCAADDRWDYDYWGQGTQGTVSS”, for which the “polyreactivity (PSR sort gate)” value is listed as “low polyreactivity”.

As to “QVQLVESGGGLVQAGGSLRLSCAASGRSFLGYPMGWYRQAARKERELVAAISSSGTSTYYADSVKGRFTISRDNAQNTVYLQMNSLKPEETSVYYCAKYAYSYYPPAYDYWGQGTKVTVSS”, the “polyreactivity (PSR sort gate)” value was “high polyreactivity”.

“QVQLVESGGGLVQAGGSLRLSCAASGRIFKVYAMGWYRQAPGKERELVATISRGGSTYYADSVKGRFTISRDNAKNTVYLQMNSLKPEDTAVYYCAKQRERYYWFGAWSYDYWGQGTQLTVSS”: the “polyreactivity (PSR sort gate)” value is listed as “low polyreactivity”.

In the case of “QVQLVESGGGLVQAGGSLRLSCAASGSIFVFYDMGWYRQAPGKERELVATISSGGGGTYYTDSVKGRFTISRDNAKNTVYLQLNSLKPEDTAVYYCAAEGDKYGKGYGYWGQGTQVTVSS”, the “polyreactivity (PSR sort gate)” value was “low polyreactivity”.

Turning to “QVQLVESGGGLVQAGGSLRLSCAASGRIFYYYAMGWYRQAPGKERELVAVISRGGRTKYADSVKGRFTISRDNAKNTVYLQMNSLKPEDTAFYYCAAYPSYYGDSGLRYDYWGQGTQVPVSS”, the “polyreactivity (PSR sort gate)” value is reported as “high polyreactivity”.

Consider “QVQLVESGGGLVQAGGSLRLSCAAYGRTIRYYSMGRYRQAPAKERELVATISRRSGNTYYADSVKGRFTLSRDNAKNTVYLKMNSLKPEDTAVYYCAVRYFGLYNYDYWGQGTQVTVSS”, for which the “polyreactivity (PSR sort gate)” value is “high polyreactivity”.

Turning to “QVQLVESGGGLVQAGGSLRLSCAASGYTFDRYAMGWYRQAPGKERELVAVISRSGATTYYADSVKGRFTISRDNAKNTVYLQMNSLKPEDTAVYYCAARNPSGKGRYDYWGQGTQVTVSS”, the “polyreactivity (PSR sort gate)” value is “high polyreactivity”.

Regarding “QVQLVESGGGLVQAGGSLRLSCAASGRTYSRNAMGWYRQAPGKERELVATISRGGGITFYADSVKGRFTISRDNAKNTVYLQMNSLKPEDTAVYYCAAQYYYWTRRPGDYWGQGTQVTVSS”, the “polyreactivity (PSR sort gate)” value is “high polyreactivity”.
